Experimental data reported in US20060073146A1 (Genentech, published 2006).
Each block holds one molecule with its values, some of them ahead of it. Ends that are not written are not given here.

T1: TACI (the 265 amino acid form of human TACI, hTACI (265)), expressed on transfected cells (human, UniProt O14836 1-258)
T1 sequence: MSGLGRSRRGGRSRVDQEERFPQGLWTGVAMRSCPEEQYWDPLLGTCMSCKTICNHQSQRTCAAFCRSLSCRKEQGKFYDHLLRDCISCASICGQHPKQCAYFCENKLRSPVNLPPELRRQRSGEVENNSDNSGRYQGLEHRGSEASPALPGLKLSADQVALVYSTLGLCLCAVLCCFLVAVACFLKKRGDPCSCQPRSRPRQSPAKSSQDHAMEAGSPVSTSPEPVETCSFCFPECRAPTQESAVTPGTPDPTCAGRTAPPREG

T2: DcR3-IgG (IgG1-Fc fusion of the ECD of DcR3) (human, UniProt O95407 30-300, limits assumed)
T2 construct: extracellular domain; Control immunoadhesin; not shown: IgG1 Fc
T2 sequence (looked up): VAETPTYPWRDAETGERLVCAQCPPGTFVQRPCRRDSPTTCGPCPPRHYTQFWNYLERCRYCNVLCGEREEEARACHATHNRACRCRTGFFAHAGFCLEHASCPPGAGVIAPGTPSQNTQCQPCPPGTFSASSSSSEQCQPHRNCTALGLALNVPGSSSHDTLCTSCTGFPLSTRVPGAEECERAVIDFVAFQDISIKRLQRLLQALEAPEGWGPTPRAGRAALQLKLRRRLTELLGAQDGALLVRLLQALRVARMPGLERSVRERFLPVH

B1: Flag-LIGHT (ligand, UniProt O43557 82-240, looked up, not shown: small tags and cut ends)
chain: QLIQERRSHEVNPAAHLTGANSSLTGSGGPLLWETQLGLAFLRGLSYHDGALVVTKAGYYYIYSKVQLGGVGCPLGLASTITHGLYKRTPRYPEELELLVSQQSPCGRATSSSRVWWDSSFLGGVVHLEAGEKVVVRVLDERLVRLRDGTRSYFGAFMV
notes: range 82-240; Control ligand; purified on M2 anti-Flag resin; also called Flag-tagged form of LIGHT
B2: TACI-ECD.hFc immunoadhesin (amino acids 2-166 of human TACI fused to human IgG1 Fc) (Fc fusion, not shown: a dimerising Fc or GST)
chain: SGLGRSRRGGRSRVDQEERFPQGLWTGVAMRSCPEEQYWDPLLGTCMSCKTICNHQSQRTCAAFCRSLSCRKEQGKFYDHLLRDCISCASICGQHPKQCAYFCENKLRSPVNLPPELRRQRSGEVENNSDNSGRYQGLEHRGSEASPALPGLKLSADQVALVYST
notes: also called TACI-IgG; TACI-Fc
B3: BCMA-ECD immunoadhesin (amino acids 5-51 of human BCMA fused to human IgG1 Fc) (Fc fusion, not shown: a dimerising Fc or GST)
chain: AGQCSQNEYFDSLLHACIPCQLRCSSNTPPLTCQRYCNASVTNSVKG
modifications: not fully specified (C-terminus); cysteine pairing not given here; also: C-terminal fusion to human IgG1 Fc (limits not given here)
notes: also called BCMA-IgG; BCMA-Fc
B4: Flag-AP-APRIL (ligand)
chain: AVLTQKQKKQHSVLHLVPINATSKDDSDVTEVMWQPALRRGRGLQAQGYGVRIQDAGVYLLYSQVLFQDVTFTMGQVVSREGQGRQETLFRCIRSMPSHPDRAYNSCYSAGVFHLHQGDILSVIIPRARAKLNLSPHGTFLGFVKL
notes: APRIL fused C-terminally to AP, AP fused C-terminally to Flag; not shown: Flag tag of the pCMV-1 Flag vector; human placental alkaline phosphatase
B5: Flag-APRIL (ligand, not shown: small tags and cut ends)
chain: B4 chain
notes: also called Flag-tagged APRIL fusion protein
B6: BCMA, expressed on transfected cells (receptor)
chain: MLQMAGQCSQNEYFDSLLHACIPCQLRCSSNTPPLTCQRYCNASVTNSVKGTNAILWTCLGLSLIISLAVFVLMFLLRKISSEPLKDEFKNTGSGLLGMANIDLEKSRTGDEIILPRGLEYTVEECTCEDCIKSKPKVDSDHCFPLPAMEEGATILVTTKTNDYCKSLPAALSATEIEKSISAR
B7: AP-EDA (comprising amino acids 241-391 of EDA) (ligand, UniProt Q92838 241-391, looked up)
chain: AGTRENQPAVVHLQGQGSAIQVKNDLSGGVLNDWSRITMNPKVFKLHPRSGELEVLVDGTYFIYSQVEVYYINFTDFASYEVVVDEKPFLQCTRSIETGKTNYNTCYTAGVCLLKARQKIAVKMVHADISINMSKHTTFFGAIRLGEAPAS
notes: range 241-391; Used as conditioned medium; not shown: human placenta alkaline phosphatase (AP)

What was measured:
Flag-APRIL [1] = target: B5; experiment: ELISA: Flag-APRIL plus control IgG on TACI-IgG captured by anti-human Fc; bound Flag-APRIL detected with biotinylated anti-Flag
Flag-APRIL [2] = target: B5; experiment: ELISA: Flag-APRIL plus control IgG on BCMA-IgG captured by anti-human Fc; bound Flag-APRIL detected with biotinylated anti-Flag
[3] = target: B2; experiment: co-immunoprecipitation (protein A or anti-Flag M2 agarose) and Western blot
Procedure: (§1) One μg of the purified human or Flag-LIGHT (control), Flag-APRIL, or Flag-TALL-1, or Flag-AP-APRIL, or Flag-AP-TALL-1 was incubated with 1 μg of purified human immunoadhesin containing the IgG1-Fc fusion of the ECD of DcR3 (control; Pitti et al., Nature, 396:699-703 (1998)) or TACI or BCMA overnight at 4° C. in duplicate. The TACI-ECD.hFc immunoadhesins were prepared by methods described in Ashkenazi et al., Proc. Natl. Acad. Sci., 88:10535-10539 (1991). The immunoadhesin constructs consisted of amino acids 2-166 of the human TACI polypeptide (see FIG. 1). The TACI-ECD constructs were expressed in CHO cells using a heterologous signal sequence (pre-pro trypsin amino acids 1-17 of pCMV-1 Flag (Sigma)) and encoding the human IgG1 Fc region downstream of the TACI sequence, and then purified by protein A affinity chromatography. The BCMA-ECD immunoadhesins were prepared by methods described in Ashkenazi et al., as cited above. The immunoadhesin constructs consisted of amino acids 5-51 of the human BCMA polypeptide (see FIG. 2). The BCMA-ECD constructs were expressed in CHO cells using a heterologous signal sequence (pre-pro trypsin amino acids 1-17 of pCMV-1 Flag (Sigma)) and encoding the human IgG1 Fc region downstream of the BCMA sequence, and then purified by protein A affinity chromatography.
(§2) One set of reactions (FIG. 8; Panels A-C) was subjected to immunoprecipitation through the receptor-immunoadhesin with protein A-agarose (Repligen). The second set of reactions (FIG. 8; panels D-F) was subjected to immunoprecipitation through the Flag-tagged ligand with Anti-Flag mAb-M2-agarose (Sigma). The immunoprecipitates were then analyzed by Western blot with horseradish peroxidase-conjugated anti-Flag M2 mAb (Sigma) to detect the Flag-tagged ligands (FIGS. 8A-C) or horseradish peroxidase-conjugated goat anti-human IgG pAb (Amersham) to detect the receptor-immunoadhesins (FIGS. 8D-F).

[4] = target: T3, Human TNF-alpha, membrane form on transfected COS 7 cells (Flag tag inserted between amino acid 70 and 71) (human, UniProt P01375 1-233); experiment: Fc fusion on ligand-transfected COS 7 cells, biotinylated anti-human antibody and Cy3-streptavidin staining
T3 construct: whole, on cells
Procedure: Additional assays were conducted to determine whether TACI could serve as a receptor for other members of the TNF family of ligands. COS 7 cells (ATCC) were transiently transfected (using Lipofectamine reagent) with membrane forms of various ligands of TNF family. Among the ligands tested were APRIL, TALL-1, 4-1 BBL, CD27L, CD30L, CD40L, EDA, FasL, GITRL, LT-alpha, OX-40L, RANKL, TNF-alpha, TNF-beta and Apo2L/TRAIL.
For the detection of TNF-alpha expression on the cell surface, a Flag tag was inserted between amino acid 70 and amino acid 71 (using the numbering according to the sequence in Pennica et al., supra). An extracellular region of TALL-1 (aa 75-285; see FIG. 3), 4-1BBL (aa 59-254; Goodwin et al., Eur. J. Immunol., 23:2631-2641 (1993)), CD27 ligand (aa 40-193; Goodwin et al., Cell, 73:447-456 (1993)), CD30 ligand (aa 61-234; Smith et al., Cell, 73:1349-1360 (1993)), RANKL (aa 71-317; see WO98/28426), Apo-2 ligand (aa 40-281; see WO97/25428) or Apo-3L (aa 46-249; see WO99/19490) was individually cloned at the BamHI site. […] For APRIL (see FIG. 4) and EDA (Srivastava et al., supra), full length cDNA clones without Flag tag were used.
Transfected COS 7 cells were subsequently incubated with TACI.ECD.hFC immunoadhesin (prepared as described above). […]

Flag-LIGHT = target: B1; experiment: co-immunoprecipitation (protein A or anti-Flag M2 agarose) and Western blot
Procedure: as §1, §2

Flag-APRIL [5] = target: B5; experiment: co-immunoprecipitation and Western blot
Procedure: as §1, with “The immunoadhesin constructs consisted of amino acids 5-51 of the human BCMA polypeptide (see FIG. 2). The BCMA-ECD constructs were expressed in CHO cells using a heterologous signal sequence (pre-pro trypsin amino acids 1-17 of pCMV-1 Flag (Sigma)) and encoding the human IgG1 Fc region downstream of the BCMA sequence, and then purified by protein A affinity chromatography.” left out
as §2, with “The second set of reactions (FIG. 8; panels D-F) was subjected to immunoprecipitation through the Flag-tagged ligand with Anti-Flag mAb-M2-agarose (Sigma).” left out

[6] = target: T1, TACI (the 265 amino acid form of human …); experiment: conditioned medium on receptor-transfected COS 7 cells, in situ AP staining
[7] = target: T2, DcR3-IgG (IgG1-Fc fusion of the ECD of …); experiment: co-immunoprecipitation (protein A or anti-Flag M2 agarose) and Western blot
Procedure: as §1, §2

[8] = target: T4, Flag-AP-TALL-1 (Example 2 construct, TALL-1 amino acids 135-285) (human, UniProt Q9Y275 135-285); experiment: conditioned medium on receptor-transfected COS 7 cells, in situ AP staining
T4 construct: not shown: Flag tag of the pCMV-1 Flag vector; human placental alkaline phosphatase

Flag-AP-APRIL = target: B4; experiment: as above
[9] = target: T1, TACI (the 265 amino acid form of human …); experiment: conditioned medium on TACI-transfected COS 7 cells, in situ AP staining
Procedure: In an in vitro assay, COS 7 cells (ATCC) were seeded into 12 well plates 24 hours before transfection. The cells were then transfected with 1 microgram TACI (the 265 amino acid form of human TACI described above, cloned in pRK5B vector, infra) or vector plasmid (pRK5B) alone. 18-24 hours after transfection, the cells were incubated with conditioned medium containing AP-TALL-1; AP-TNF-alpha; or AP-EDA for 1 hour at room temperature and stained for AP activity in situ as described in Tartaglia et al., Cell, 83:1263-1271 (1995).

T3 sequence (P01375 whole entry, the tested form may be a part): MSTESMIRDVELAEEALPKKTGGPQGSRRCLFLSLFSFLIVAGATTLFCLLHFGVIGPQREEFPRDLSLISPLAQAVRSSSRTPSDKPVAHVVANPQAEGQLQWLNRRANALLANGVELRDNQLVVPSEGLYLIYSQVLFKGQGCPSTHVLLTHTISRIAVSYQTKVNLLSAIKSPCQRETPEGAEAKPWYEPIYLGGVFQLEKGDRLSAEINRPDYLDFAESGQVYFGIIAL
T4 sequence (Q9Y275 135-285): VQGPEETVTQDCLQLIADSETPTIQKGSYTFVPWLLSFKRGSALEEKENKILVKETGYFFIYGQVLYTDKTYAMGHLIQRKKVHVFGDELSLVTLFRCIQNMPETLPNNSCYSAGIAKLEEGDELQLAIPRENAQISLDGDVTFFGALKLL

% Max Binding to TACI (Flag-APRIL [1]): 100%
% Max Binding to BCMA (Flag-APRIL [2]): 100%
Molecule: IgG Ctrl (antibody)

Molecule: B1
binding result [3]: no binding (tested: 1 µg of each)

Molecule: B2
binding result [4]: no binding (tested: 1 µg/ml)

Molecule: B3
binding result [4]: no binding
binding result (Flag-LIGHT): no binding (tested: 1 µg of each)
binding result (Flag-APRIL [5]): binds

Molecule: B4
binding result [6]: binds
binding result [7]: no binding (tested: 1 µg of each)

Molecule: B5
binding result [7]: no binding (tested: 1 µg of each)

Molecule: B6
binding result [8]: binds
binding result (Flag-AP-APRIL): binds

Molecule: B7
binding result [9]: no binding
